According to PMC4917244:

What was measured:
[1] = biological target: T1, Ros1WOPR-His (Ustilago maydis (FB1?)) (UniProt A0A0D1BVT7); assay: EMSA
T1 sequence: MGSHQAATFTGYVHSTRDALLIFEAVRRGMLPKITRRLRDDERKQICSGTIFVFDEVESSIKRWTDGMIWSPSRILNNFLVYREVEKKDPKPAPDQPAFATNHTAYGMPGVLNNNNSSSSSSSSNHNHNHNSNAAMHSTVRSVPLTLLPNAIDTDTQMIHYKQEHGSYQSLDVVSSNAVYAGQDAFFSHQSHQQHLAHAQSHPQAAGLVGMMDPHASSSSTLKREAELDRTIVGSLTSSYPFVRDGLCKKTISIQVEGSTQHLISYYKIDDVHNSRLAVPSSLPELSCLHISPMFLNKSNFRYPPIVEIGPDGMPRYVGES

[2] = biological target: T1, Ros1WOPR-His (Ustilago maydis (FB1?)); assay: competition EMSA

Sequence	binding [1]	binding [2]
CGCCAGAGACAAGTACTGTTCCCAATTCGGAGCTTCGCCGTGAACCACGAATTCATGCATTTCCATATTGGCAAAATATTAAAAAATTGAGGGTTTTGGCGTTGGCCTTTTGAGAGTTTATTTTAGATTTAATTAAGTGATTATGAGGATGATTCTTTTTCTTCATCTTCCTGTAACCGTCACCTGCCACGCTTGCCTAGACGCAGCAGTATCCACTCCGTAGGCGTATGCTATTGT (double strand) [WT-probe (ros1 promoter)]	binds	
CGCCAGAGACAAGTACTGTTCCCAATTCGGAGCTTCGCCGTGAACCACGAATTCATGCATTTCCATATTGGCAAAATATTAAAAAATTGAGGGTTTTGGCGTTGGCCTTTTGAGAGTTTATTTTAGATTTAATTAAGTGATTATGAGGATGATTCTTTTTCTTCATCTTCCTGTAACCGTCACCTGCCACGCTTGCCTAGACGCAGCAGTATCCACTCCGTAGGCGTATGCTATTGT (double strand) [WT-probe unlabeled competitor]		binds
